Laboratory results: FireProtDB (doi:10.1021/bi100877y)
“And” between values parts separate entries of the source, which are not always exact repeats. Equal entries are not always repeated.

B1: Outer membrane porin C, P06996 (parent)
chain: MKVKVLSLLVPALLVAGAANAAEVYNKDGNKLDLYGKVDGLHYFSDNKDVDGDQTYMRLGFKGETQVTDQLTGYGQWEYQIQGNSAENENNSWTRVAFAGLKFQDVGSFDYGRNYGVVYDVTSWTDVLPEFGGDTYGSDNFMQQRGNGFATYRNTDFFGLVDGLNFAVQYQGKNGNPSGEGFTSGVTNNGRDALRQNGDGVGGSITYDYEGFGIGGAISSSKRTDAQNTAAYIGNGDRAETYTGGLKYDANNIYLAAQYTQTYNATRVGSLGWANKAQNFEAVAQYQFDFGLRPSLAYLQSKGKNLGRGYDDEDILKYVDVGATYYFNKNMSTYVDYKINLLDDNQFTRDAGINTDNIVALGLVYQF

Variants of: B1
Details: Escherichia coli (strain K12), pH 7, Thermal, phosphate 50 mM, structure 2J1N, whole UniProt chain shown

Variant | change of melting temperature, mutant - wild type (higher = more stable) (CD) | Tm (DSC) [°C] | change of melting temperature, mutant - wild type (higher = more stable) (DSC) [°C] | unfolding enthalpy (calorimetric) (DSC) [kcal/mol] | Tm (CD) [°C]
R58H | -1.5 °C and -1.1 °C and -2 °C | 87.3 | 0.31 | 359 | 
R95A D126G |  | 73.9 | -13 | 192 | 
D126G |  | 81.5 | -5.44 | 304 | 
R95A |  | 81.3 | -5.66 | 258 | 
R95C | -1.5 °C | 84.6 | -2.35 | 297 | 68.4
R95S | -1.8 °C and -6.8 °C | 81.7 | -5.26 | 299 | 
R95G | -1.8 °C | 80.8 | -6.19 | 326 | 68.1
